For one test, the target named is human CD137 on cells (UniProt Q07011 24-255). The test is described as follows: FACS binding CHO-K1/human CD137 cells.
Another test deals with T1, cynomolgus 5T4 on cells (cynomolgus macaque, UniProt Q4R8Y9 35-420).
T1 chain: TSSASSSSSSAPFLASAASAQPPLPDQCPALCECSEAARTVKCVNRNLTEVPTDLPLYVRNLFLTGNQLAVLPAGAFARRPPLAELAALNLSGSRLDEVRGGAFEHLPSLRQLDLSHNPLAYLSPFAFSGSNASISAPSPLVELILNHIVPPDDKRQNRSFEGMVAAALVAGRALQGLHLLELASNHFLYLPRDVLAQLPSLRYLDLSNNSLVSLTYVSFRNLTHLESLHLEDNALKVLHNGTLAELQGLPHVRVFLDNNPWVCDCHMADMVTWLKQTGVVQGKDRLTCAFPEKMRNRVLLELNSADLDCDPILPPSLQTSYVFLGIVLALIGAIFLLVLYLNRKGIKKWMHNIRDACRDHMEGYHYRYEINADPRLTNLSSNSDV
The test is described as follows: FACS binding CHO-K1/cynomolgus 5T4 cells. A general note: Flow cytometry measures light scatter and fluorescence of single cells or particles in a stream.

In a further test the target is T2, human 5T4 on cells (UniProt Q13641 32-420).
T2 chain: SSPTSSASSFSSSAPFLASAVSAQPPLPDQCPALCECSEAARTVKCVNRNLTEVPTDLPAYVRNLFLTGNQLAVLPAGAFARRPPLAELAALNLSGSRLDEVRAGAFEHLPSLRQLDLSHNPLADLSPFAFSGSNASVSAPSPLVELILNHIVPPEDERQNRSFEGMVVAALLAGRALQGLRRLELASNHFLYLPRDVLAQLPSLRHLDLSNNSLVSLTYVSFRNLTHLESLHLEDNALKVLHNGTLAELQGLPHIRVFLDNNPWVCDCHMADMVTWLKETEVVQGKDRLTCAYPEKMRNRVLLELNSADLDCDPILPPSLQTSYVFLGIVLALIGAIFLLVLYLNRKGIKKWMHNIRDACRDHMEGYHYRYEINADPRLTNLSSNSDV
The test is described as follows: FACS binding CT26 human 5T4 cells; CT26 cells.

As a reminder, the EC50 is the concentration that produces a half-maximal response.

human CD137 on cells, sequence (Q07011 24-255): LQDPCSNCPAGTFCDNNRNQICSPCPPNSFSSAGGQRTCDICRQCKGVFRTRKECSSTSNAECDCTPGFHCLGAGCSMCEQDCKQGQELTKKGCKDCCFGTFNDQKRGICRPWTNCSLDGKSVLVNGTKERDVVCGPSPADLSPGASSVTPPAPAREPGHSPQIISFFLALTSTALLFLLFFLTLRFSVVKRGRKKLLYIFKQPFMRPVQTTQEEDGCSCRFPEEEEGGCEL

B1: ALG.APV-004 (bispecific antibody)
chain 1: EVQLLESGGGLVQPGGSLRLSCAASGFTFSYGSMYWVRQAPGKGLEWVSSISSGSGSTYYADSVKGRFTISRDNSKNTLYLQMNSLRAEDTAVYYCARSSYYGSYYSIDYWGQGTLVTVSSEVQLLESGGGLVQPGGSLRLSCAASGFTFSSYAMSWVRQAPGKCLEWVSAISGSGGSTYYADSVKGRFTISRDNSKNTLYLQMNSLRAEDTAVYYCARYYGGYYSAWMDYWGQGTLVTVSSDIQMTQSPSSLSASVGDRVTITCRASQSISSYLNWYQQKPGKAPKLLIYAASSLQSGVPSRFSGSGSGTDFTLTISSLQPEDFATYYCQQTYGYLHTFGCGTRLEIK
chain 2: DIQMTQSPSSLSASVGDRVTITCRASQSISSYLNWYQQKPGKAPKLLIYAASSLQSGVPSRFSGSGSGTDFTLTISSLQPEDFATYYCQQYYDNLPTFGQGTKLEIK
With B1, the EC50 is 0.39 nM with human CD137 on cells, 6.5 nM in the test with cynomolgus 5T4 on cells and 1.5 nM in the test with human 5T4 on cells.

The values above are taken from US20190382503A1 (published 2019).
